In patent US20250340623A1:

Assays:
Conditions in all cases: remark: other sources report otherwise
[1] = biological target: alpha-synuclein fibrils, P37840; assay: SPR, captured mAb
[2] = biological target: monomeric alpha-synuclein, P37840; assay: SPR, captured mAb; steady-state model
[3] = biological target: monomeric alpha-synuclein, P37840; assay: SPR, captured mAb; heterogeneous ligand model
[4] = biological target: alpha-synuclein fibrils, P37840; assay: SPR single-cycle kinetics, antibody captured on anti-mouse chip, alpha-synuclein fibrils injected
[5] = biological target: monomeric alpha-synuclein, P37840; assay: SPR single-cycle kinetics, antibody captured on anti-mouse chip, monomeric alpha-synuclein injected
[6] = biological target: monomeric alpha-synuclein, P37840; assay: SPR, captured mAb
[7] = biological target: alpha-synuclein fibrils, P37840; assay: SPR, captured mAb; alpha-synuclein fibrils
[8] = biological target: monomeric alpha-synuclein, P37840; assay: SPR, captured mAb; alpha-synuclein monomers

B1: ACI-7067-1101C8-Ab2 (antibody, V domains shown)
VH: EVQLVESGGGLVQPKGSLKLSCAASGFSFNIYAMNWVRQAPGKGLEWVARIRSKSNNYATYYADSVKDRFTISRADSESMLYLQMNNLKTEDTAMYYCVRVGLRFYAMDYWGQGTSVTVSS
VL: DVLMTQTPLSLPVSLGDQASISCRSSQSIVHSNGNTYLEWYLQKPGQSPKLLIYKVSNRFSGVPDRFSGSGSGTDFTLKISRVEAEDLGVYYCFQGSQGPLTFGAGTKLELK
Kd [1]: 2.9 nM | koff [1]: 0.000283 s⁻¹ | kon [1]: 176000 M⁻¹ s⁻¹ | Kd [2]: 43.7 nM | koff [3]: 0.0265 s⁻¹ | kon [3]: 55500 M⁻¹ s⁻¹ | Kd [4]: 1.6 nM | koff [4]: 0.00024 s⁻¹ | Kd [5]: 38.8 nM | koff [5]: 0.019 s⁻¹

B2: ACI-7079-2603F3-Ab1 (antibody, V domains shown)
VH: EVQLVESGGGLVQPKGSLKLSCAASGFTFNTYAMHWVRQAPGKGLEWVARIRSKGSNYATYYADSVKDRFTISRDDSQSMLYLQMNNLKTEDTAMYYCVRGGGDSWFAYWGQGTLVTVSA
VL: QIVLTQSPAIMSASPGERVTMTCTASSSVSYMHWYQQKSGTSPKRWIYDTSKLASGVPARFSGSGSGASYTLTISSMEAEDAATYYCQQWNSNPPTFGGGTQLAIK
koff [1]: 1.6e-08 s⁻¹ | kon [1]: 7310 M⁻¹ s⁻¹ | koff [6]: 0.0149 s⁻¹ | kon [6]: 50800 M⁻¹ s⁻¹ | Kd [7]: 0.002 nM | Kd [8]: 293 nM

B3: ACI-7088-4317A4-Ab1 (antibody, V domains shown)
VH: EVQLQQSGAELVRPGASVKLSCTASGFNIKDDYMHWVKQRPEQGLEWIGWIDPENGDTEYASKFQGKATMTADTSSNTAYLQLSSLTSEDTAVYYCKTWGTTQALFPYWGQGTLVTVSA
VL: DIVMTQSQKFMYTSVGDRVSITCKASQNVGNAVGWYQQKAGQSPKLLIHSASNRYTGVPDRFTGTGSGTDFTLTINNMQSEDLADYFCQQYRSYPLTFGAGTKLELK
koff [1]: 0.000998 s⁻¹ | kon [1]: 337000 M⁻¹ s⁻¹ | koff [6]: 0.012 s⁻¹ | kon [6]: 3280 M⁻¹ s⁻¹ | Kd [7]: 3 nM | Kd [8]: 3660 nM
